Patent US20180086804A1 (COMMISSARIAT A L ENERGIE ATOMIQUE ET AUX ENERGIES …, published 2018)
Where two headings read alike, the source gives them in different places. No end group written: not given here.

Columns and labels:
HLA-DR7 (HLA-DRB1*07:01) [1] = target: T1, HLA-DR7 (HLA-DRB1*07:01) (human); experiment: competition ELISA vs biotin-YKL
T1 construct: mature; purified from homozygous EBV-transformed lymphoblastoid cells with antibody L243

[2] = target: T2, HLA-DR15 (HLA-DRB1*15:01) (human); experiment: competition ELISA vs biotin-A3 152-166
T2 construct: mature; purified from homozygous EBV-transformed lymphoblastoid cells with antibody L243

HLA-DR3 (HLA-DRB1*03:01) [3] = target: T3, HLA-DR3 (HLA-DRB1*03:01) (human); experiment: competition ELISA vs biotin-MT 2-16
T3 construct: mature; purified from homozygous EBV-transformed lymphoblastoid cells with antibody L243

[4] = target: T4, HLA-DP402 (HLA-DPB1*04:02) (human, UniProt P20036 29-222); experiment: competition ELISA vs biotin-Oxy 271-287;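 also: plates incubated 24–72 h, maximum binding defined by wells lacking competitor, background by wells lacking HLA molecule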
T4 construct: mature; purified from homozygous EBV-transformed lymphoblastoid cells with antibody B7/21

[5] = target: T5, HLA-DP401 (HLA-DPB1*04:01) (human, UniProt P20036 29-222); experiment: competition ELISA vs biotin-Oxy 271-287;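 also: plates incubated 24–72 h, maximum binding defined by wells lacking competitor, background by wells lacking HLA molecule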
T5 construct: mature; purified from homozygous EBV-transformed lymphoblastoid cells with antibody B7/21

[6] = target: T6, HLA-DRB3 (HLA-DRB3*01:01) (human); experiment: competition ELISA vs biotin-LOL 191-210
T6 construct: mature; purified from homozygous EBV-transformed lymphoblastoid cells with antibody L243

[7] = target: T7, HLA-DRB4 (HLA-DRB4*01:01) (human); experiment: competition ELISA vs biotin-E2/E168
T7 construct: mature; purified from homozygous EBV-transformed lymphoblastoid cells with antibody L243

HLA-DR1 (HLA-DRB1*01:01) [8] = target: T8, HLA-DR1 (HLA-DRB1*01:01) (human); experiment: competition ELISA vs biotin-HA 306-318;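 also: HLA and competitor incubated 24 to 72 h, maximal signal taken from wells lacking competitor, background from wells lacking HLA molecule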
T8 construct: mature; class II HLA molecule purified from homozygous EBV-transformed lymphoblastoid cells with antibody L243

[9] = target: T9, HLA-DRB5 (HLA-DRB5*01:01) (human); experiment: competition ELISA vs biotin-HA 306-318;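 also: HLA and competitor incubated 24 to 72 h, maximal signal taken from wells lacking competitor, background from wells lacking HLA molecule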
T9 construct: mature; purified from homozygous EBV-transformed lymphoblastoid cells with antibody L243

[10] = target: T10, HLA-DR11 (HLA-DRB1*11:01) (human); experiment: competition ELISA vs biotin-HA 306-318;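 also: HLA and competitor incubated 24 to 72 h, maximal signal taken from wells lacking competitor, background from wells lacking HLA molecule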
T10 construct: mature; purified from homozygous EBV-transformed lymphoblastoid cells with antibody L243

HLA-DR4 (HLA-DRB1*04:01) [11] = target: T11, HLA-DR4 (HLA-DRB1*04:01) (human); experiment: competition ELISA vs biotin-HA 306-318;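 also: HLA and competitor incubated 24 to 72 h, maximal signal taken from wells lacking competitor, background from wells lacking HLA molecule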
T11 construct: mature; purified from homozygous EBV-transformed lymphoblastoid cells with antibody L243

HLA-DR3 (HLA-DRB1*03:01) [12] = target: T3, HLA-DR3 (HLA-DRB1*03:01); experiment: competition ELISA vs biotin-MT 2-16; remark: listed apart in the source
[13] = target: T9, HLA-DRB5 (HLA-DRB5*01:01); experiment: competition ELISA vs biotin-HA 306-318; remark: listed apart in the source
[14] = target: T10, HLA-DR11 (HLA-DRB1*11:01); experiment: competition ELISA vs biotin-HA 306-318; remark: listed apart in the source
[15] = target: T12, HLA-DR13 (HLA-DRB1*13:01) (human); experiment: competition ELISA vs biotin-B1 21-36
T12 construct: mature; purified from homozygous EBV-transformed lymphoblastoid cells with antibody L243

[16] = target: T2, HLA-DR15 (HLA-DRB1*15:01); experiment: competition ELISA vs biotin-A3 152-166; remark: listed apart in the source
HLA-DR7 (HLA-DRB1*07:01) [17] = target: T1, HLA-DR7 (HLA-DRB1*07:01); experiment: competition ELISA vs biotin-YKL; remark: listed apart in the source
HLA-DR1 (HLA-DRB1*01:01) [18] = target: T8, HLA-DR1 (HLA-DRB1*01:01); experiment: competition ELISA vs biotin-HA 306-318; remark: listed apart in the source
HLA-DR4 (HLA-DRB1*04:01) [19] = target: T11, HLA-DR4 (HLA-DRB1*04:01); experiment: competition ELISA vs biotin-HA 306-318; remark: listed apart in the source

| Binder | relative affinity (HLA-DR7 (HLA-DRB1*07:01) [1]) | relative affinity [2] | relative affinity [4] | relative affinity [5] | relative affinity (HLA-DR1 (HLA-DRB1*01:01) [8]) | relative affinity [10] | relative affinity [15] | also measured |
| --- | --- | --- | --- | --- | --- | --- | --- | --- |
| GNMRAILIDWLVQVQ-NH2 [CCNB1 199-213] | 10 | 1 | 24 | 36 | 27 | 77 | – | relative affinity (HLA-DR3 (HLA-DRB1*03:01) [3]): 1; relative affinity [6]: 9; relative affinity [7]: 9; relative affinity [9]: 58; relative affinity (HLA-DR4 (HLA-DRB1*04:01) [11]): 56 |
| KKMLQLVGVTAMFIA-NH2 [CCNB1 241-255] | 0.1 | 1 | 35 | 424 | 3 | 90 | – | relative affinity (HLA-DR3 (HLA-DRB1*03:01) [3]): 15; relative affinity [9]: 1; relative affinity (HLA-DR4 (HLA-DRB1*04:01) [11]): 1 |
| LQLVGVTAMFIASKY-NH2 [CCNB1 244-258] | 1 | 1 | 32 | 77 | 2 | 23 | – | relative affinity (HLA-DR3 (HLA-DRB1*03:01) [3]): 9; relative affinity [6]: 267; relative affinity [7]: 98; relative affinity [9]: 1 |
| SQIAAGAFCLALKIL-NH2 [CCNB1 342-356] | 20 | 21 | 25 | 79 | 46 | 3 | – | relative affinity [6]: 239; relative affinity [7]: 57 |
| QHYLSYTEESLLPVM-NH2 [CCNB1 366-380] | 1 | 47 | 0.3 | 0.2 | 32 | 55 | – | relative affinity [6]: 32; relative affinity [9]: 471; relative affinity (HLA-DR4 (HLA-DRB1*04:01) [11]): 65 |
| SKINAENKAKINMAG-NH2 [CCNB1 9-23] | – | – | – | – | – | – | 146 | relative affinity (HLA-DR3 (HLA-DRB1*03:01) [12]): 22; relative affinity [13]: 1000; relative affinity [14]: 490 |
| PGLRPRTALGDIGNK-NH2 [CCNB1 37-51] | – | – | – | – | – | – | 422 | – |
| TALGDIGNKVSEQLQ-NH2 [CCNB1 43-57] | – | – | – | – | – | – | 1790 | relative affinity [16]: 300 |
| NKVSEQLQAKMPMKK-NH2 [CCNB1 50-64] | – | – | – | – | – | – | 258 | relative affinity [13]: 51; relative affinity [14]: 1550 |
| EQLQAKMPMKKEAKP-NH2 [CCNB1 54-68] | – | – | – | – | – | – | – | relative affinity (HLA-DR7 (HLA-DRB1*07:01) [17]): 808; relative affinity (HLA-DR1 (HLA-DRB1*01:01) [18]): 3740; relative affinity [13]: 35; relative affinity [14]: 1410 |
| AKMPMKKEAKPSATG-NH2 [CCNB1 58-72] | – | – | – | – | – | – | 683 | relative affinity [14]: 40 |
| TGKVIDKKLPKPLEK-NH2 [CCNB1 71-85] | – | – | – | – | – | – | – | relative affinity (HLA-DR3 (HLA-DRB1*03:01) [12]): 228; relative affinity [13]: 250 |
| KPLEKVPMLVPVPVS-NH2 [CCNB1 81-95] | – | – | – | – | – | – | – | relative affinity (HLA-DR1 (HLA-DRB1*01:01) [18]): 524; relative affinity (HLA-DR4 (HLA-DRB1*04:01) [19]): 500 |
| EPVKEEKLSPEPILV-NH2 [CCNB1 108-122] | – | – | – | – | – | – | – | relative affinity (HLA-DR1 (HLA-DRB1*01:01) [18]): 894 |
| SPMETSGCAPAEEDL-NH2 [CCNB1 128-142] | – | – | – | – | – | – | – | relative affinity (HLA-DR1 (HLA-DRB1*01:01) [18]): 3590 |
